Here are results for eleven molecules from paper PMC10692205, “Pyroptosis inhibiting nanobodies block Gasdermin D pore formation” (Nature Communications, 2023).

The target in assay [1] is T1, human wild-type, full length Gasdermin D (GSDMD 1-484), chemically biotinylated (Homo sapiens (Human)., UniProt P57764, chemically biotinylated (ChromaLink Biotin), approximately 2 biotins per molecule).
T1 construct: human Gasdermin D (GSDMD), wild type, full length, residues 1-484; also called human GSDMD wt, f.l; hGSDMD; source: E. coli Rosetta (DE3), purified (Ni-NTA, SUMO cleavage by ULP1, second Ni-NTA, SEC S200); chemically biotinylated (ChromaLink Biotin Labeling kit); not shown: His6-SUMO, N-terminal, cleaved
The assay is described as follows: SPR; Biacore 8K; chemically biotinylated full length GSDMD captured on Series S Sensor Chip CAP; nanobodies injected as analytes, multi-cycle kinetics (VHH-1, -2, -3, -5: 0.5-32 nM; VHH-4, -6: 64-4096 nM); 25 °C; 20 mM HEPES pH 8.0, 200 mM NaCl, 5 mM DTT, 0.05% Tween20; flow 30 µl/min; association 120 s, dissociation 300 s; 1:1 binding model. Conditions: both partners purified.

The target of assay [2] is T2, chemically biotinylated full length human Gasdermin D (GSDMD) (Homo sapiens (Human)., UniProt P57764, chemically biotinylated (ChromaLink Biotin), approximately 2 biotins per molecule; sites not stated).
T2 construct: human Gasdermin D, wild-type, full length, residues 1-484; also called chemically biotinylated GSDMD; not shown: His6, N-terminal, cleaved; SUMO, N-terminal, cleaved
The assay is described as follows: SPR; chemically biotinylated GSDMD captured on a Series S Sensor Chip CAP (biotin capture kit); nanobodies injected as analytes, multi-cycle kinetics, 120 s association, 300 s dissociation, 1:1 binding model; 25 °C; 20 mM HEPES pH 8.0, 200 mM NaCl, 5 mM DTT, 0.05% Tween20. To be noted: both partners purified. A general note: SPR reads the build-up and loss of mass on a sensor chip optically.

Assay [3] concerns the target T3, human wild-type, full length Gasdermin D (GSDMD) 1-484 (Homo sapiens (Human)., UniProt P57764). The assay is described as follows: cell-based or functional assay.
The target of assay [4] is T4, GSDMD_(Δ184-194/Δ247-272) (human, UniProt P57764, Δ184-194 | Δ247-272).
T4 construct: human Gasdermin D 1-484 with residues 184-194 (in the NTD) and 247-272 (linker between the domains) deleted; also called GSDMD crystallization construct; source: E. coli Rosetta (DE3), purified (Ni-NTA, ULP1 cleavage, second Ni-NTA, SEC); not shown: His6, N-terminal, cleaved; SUMO, N-terminal, cleaved
The assay is described as follows: SEC-MALS; GSDMD_(Δ184-194/Δ247-272) mixed with VHH GSDMD-2, VHH GSDMD-6 or both at equimolar concentrations (189 µM); Superose 6 10/300 GL in GSDMD-SEC buffer. Conditions: both partners purified. Background: In gel filtration, larger molecules generally elute earlier.

Assay [5] concerns the target T5, chemically biotinylated full length human Gasdermin D (GSDMD) (human, UniProt P57764 1-484, chemically biotinylated (ChromaLink Biotin), approximately 2 biotins per molecule; sites not stated).
T5 chain: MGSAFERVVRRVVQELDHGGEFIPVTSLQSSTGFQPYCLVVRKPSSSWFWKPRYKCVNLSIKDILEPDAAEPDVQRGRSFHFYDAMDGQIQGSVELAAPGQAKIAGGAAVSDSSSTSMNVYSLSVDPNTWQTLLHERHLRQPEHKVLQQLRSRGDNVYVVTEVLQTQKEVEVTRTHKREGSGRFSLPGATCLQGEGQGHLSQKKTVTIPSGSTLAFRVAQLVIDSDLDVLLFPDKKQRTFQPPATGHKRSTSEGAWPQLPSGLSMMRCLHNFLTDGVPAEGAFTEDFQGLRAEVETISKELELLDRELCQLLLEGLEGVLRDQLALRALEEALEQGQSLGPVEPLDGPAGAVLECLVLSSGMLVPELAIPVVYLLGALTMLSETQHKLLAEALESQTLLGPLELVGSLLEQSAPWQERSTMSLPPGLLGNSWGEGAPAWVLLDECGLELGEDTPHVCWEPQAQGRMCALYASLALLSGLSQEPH
The assay is described as follows: SPR.

For assay [6], the target named is human wild-type, full length Gasdermin D (GSDMD 1-484), chemically biotinylated (human) (UniProt P57764). The assay is described as follows: SPR; Biacore 8K; chemically biotinylated full length GSDMD captured on Series S Sensor Chip CAP; nanobodies injected as analytes, multi-cycle kinetics (VHH-1, -2, -3, -5: 0.5-32 nM; VHH-4, -6: 64-4096 nM); 25 °C; 20 mM HEPES pH 8.0, 200 mM NaCl, 5 mM DTT, 0.05% Tween20; flow 30 µl/min; association 120 s, dissociation 300 s; 1:1 binding model.

The target of assay [7] is T3, human wild-type, full length Gasdermin …. The assay is described as follows: nanoDSF thermal shift; nanobodies titrated to GSDMD (5 µM) in increasing concentrations; heated 20 to 90 °C at 1.5 °C/min; fluorescence at 330 and 350 nm. Conditions: both partners purified. (In general: In DSF a fluorescence change marks the thermal transition of the protein.)

B1: VHH_(GSDMD-3) (VHH)
VHH: QVQLVETGGGLVQPGGSLRLSCAASGFTLDIYNMGWFRQAPGKEREGVSCISSRYGTSTYYADSVKGRFTISRDNAKNTVYLQMNNLKPEDTAVYYCATVSWRFTTNQDVCLTPSVSGYWGQGTQVTVSS
notes: also called VHH-3; source: E. coli WK6, periplasmic expression (pHEN6), purified (Ni-NTA, SEC S75)
In assay [1], B1 had a Kd of 0.551 nM, a koff of 0.00154 s⁻¹ and a kon of 2.8e+06 M⁻¹ s⁻¹.

B2: VHH_(GSDMD-3) (VHH)
VHH: B1 VHH
notes: source: E. coli WK6, periplasmic expression (pHEN6), purified (Ni-NTA, gel filtration)
As for B2, the Kd in assay [2] came out at 0.55 nM.

B3: VHH_(GSDMD-5) (VHH)
VHH: QVQLVETGGGLVQPGGSLRLSCAASGFVFSINPMNWYRQAPGKERELVAYISMRGSTTNYADSVKGRFIISRDNAKNTLYLQMNSLKPEDTAVYYCNAPSRSVWGQGTQVTVSS
notes: also called VHH-5; source: E. coli WK6, periplasmic expression (pHEN6), purified (Ni-NTA, SEC S75)
In assay [1], B3 yielded a Kd of 0.494 nM, a koff of 0.00149 s⁻¹ and a kon of 3.02e+06 M⁻¹ s⁻¹.

B4: VHH_(GSDMD-5) (VHH)
VHH: B3 VHH
notes: as for B2
For B4, the affinity in assay [2], expressed as Kd, was 0.49 nM.

B5: VHH_(GSDMD-1) (VHH)
VHH: QVQLVESGGALVQPGGSLRLSCSASGFTFSKYLMSWYRQAPGKERELVATITTAGGNTNYADSVKGRFTISRDNAKNTVYLQMNSLKPEDTAVYYCKASGGTIRTVNETYWGQGTQVTVSS
notes: also called VHH-1; source: E. coli WK6, periplasmic expression (pHEN6), purified (Ni-NTA, SEC S75)
In assay [1], B5 registered a Kd of 0.305 nM, a koff of 0.00198 s⁻¹ and a kon of 6.48e+06 M⁻¹ s⁻¹.

B6: VHH_(GSDMD-1) (VHH)
VHH: B5 VHH
notes: raised by immunization of an alpaca with full-length recombinant human GSDMD; also called VHH_(GSDMD-1)-LPETG-His; source: E. coli WK6, periplasmic expression (pHEN6), purified (Ni-NTA, gel filtration); not shown: LPETG, C-terminal, kept; His tag, C-terminal, kept
For the molecule B6, the Kd in assay [2] amounted to 0.31 nM. Further, the “IC50 of calcein release through GSDMD pores in the liposome leakage assay (nanobody 10 nM to 10 µM, 0.5 µM full length GSDMD, caspase-4, 180 min); what is blocked: formation of functional GSDMD pores” value in assay [3] was 220 nM.

B7: VHH_(GSDMD-6) (VHH)
VHH: QVQLVETGGGLVQPGGSLRLSCTASGFIFSANQMNWVRQAPGKGLEWLSGISTRGDTTSYADSVKGRFTISRDNAKNTLYLQMNSLQPDDTAVYFCARVCIRGPEPKLRCDDWGQGTQVTVSS
notes: also called VHH-6; source: E. coli WK6, periplasmic expression (pHEN6), purified (Ni-NTA, SEC S75)
In assay [1], B7 yielded a Kd of 143 nM, a koff of 0.0201 s⁻¹ and a kon of 141000 M⁻¹ s⁻¹.

B8: VHH_(GSDMD-6) (VHH)
VHH: B7 VHH
notes: CDR3 of 15 residues with an additional disulfide C100-C110; also called VHH_(GSDMD-6)-HA-His; source: E. coli WK6, periplasmic expression (pHEN6), purified (Ni-NTA, gel filtration); not shown: HA, C-terminal, kept; His tag, C-terminal, kept
Consider B8, for which the “stoichiometry N” value in assay [4] was found to be 1. Also, in assay [3], the “IC50 of calcein release through GSDMD pores in the liposome leakage assay (nanobody 10 nM to 10 µM, 0.5 µM full length GSDMD, caspase-4, 180 min); what is blocked: formation of functional GSDMD pores” value was 1300 nM.

B9: VHH_(GSDMD-4) (VHH)
VHH: QVQLVESGGGLVQPGGSLRLSCAASGFTLDRHAIAWFRQAPGLEREGVVCTSSSGAITNTADSVKGRFTISRDDAKNTVYLQMNSLKPEDTAIYYCAVRELWTVQPICEPRPRAYAYWGQGTQVTVSS
notes: as for B2
In assay [5], B9 came in with a Kd of 559 nM. In assay [6], this molecule registered a koff of 0.00161 s⁻¹ and a kon of 2890 M⁻¹ s⁻¹. For the same molecule, the binding result in assay [7] is recorded as “binds”.

B10: VHH_(GSDMD-2) (VHH)
VHH: QVQLVESGGGLVQPGGSLRLSCVDSRSWINVYGANWYRQAPGKERELVAALTSGGTTNYADSVKGRFTISRDNAKNTVYLQMRDLKPEDTAVYYCNLERYTGSSVYPWGQGTQVTVSS
notes: also called VHH-2; source: E. coli WK6, periplasmic expression (pHEN6), purified (Ni-NTA, SEC S75)
In assay [1], B10 displayed a Kd of 0.637 nM, a koff of 0.000951 s⁻¹ and a kon of 1.49e+06 M⁻¹ s⁻¹.

B11: VHH_(GSDMD-2) (VHH)
VHH: B10 VHH
notes: CDR1, -2, -3 of 10, 9 and 12 residues; disulfide C22-C95; also called VHH_(GSDMD-2)-LPETG-His; source: E. coli WK6, periplasmic expression (pHEN6), purified (Ni-NTA, gel filtration); not shown: LPETG, C-terminal, kept; His tag, C-terminal, kept
Consider B11, for which the Kd in assay [2] worked out at 0.64 nM. In assay [4], the “stoichiometry N” value turned out to be 1. The “IC50 of calcein release through GSDMD pores in the liposome leakage assay (nanobody 10 nM to 10 µM, 0.5 µM full length GSDMD, caspase-4, 180 min); what is blocked: formation of functional GSDMD pores” value in assay [3] was 650 nM.

The Kd is a measure of binding affinity in units of concentration. Lower therefore signals tighter binding. For orientation: koff means the rate constant with which the complex falls apart. Lower therefore signals slow dissociation. Broadly, the kon is a measure of how fast the partners come together. A low value points to slower complex formation. As a reminder, the stoichiometry N is a count of units in the complex or per binding partner.
